According to patent US20250154277A1 (CONCEPT TO MEDICINE BIOTECH, published 2025):
Where a chain is given by its changes, count along the chain named. Where two headings read alike, the source gives them in different places. Each block holds one binder with its values, some of them ahead of it.

Tests used:
[1] = molecular target: T1, human 5T4-His protein (human, UniProt Q13641 32-355); assay: SPR Biacore, Protein A capture
T1 construct: also called recombinant 5T4 protein (human 5T4-his tag); human 5T4 protein; not shown: His tag
T1 sequence (looked up): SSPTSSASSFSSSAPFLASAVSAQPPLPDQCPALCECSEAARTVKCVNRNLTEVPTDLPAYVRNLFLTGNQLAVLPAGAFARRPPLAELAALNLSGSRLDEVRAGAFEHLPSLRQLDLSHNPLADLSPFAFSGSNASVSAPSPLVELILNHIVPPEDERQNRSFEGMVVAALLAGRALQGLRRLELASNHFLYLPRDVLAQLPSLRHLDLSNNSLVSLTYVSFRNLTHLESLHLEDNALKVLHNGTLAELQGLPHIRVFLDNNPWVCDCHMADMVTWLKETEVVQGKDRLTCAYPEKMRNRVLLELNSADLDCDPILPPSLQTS

[2] = molecular target: T1, human 5T4-His protein; assay: ELISA, coated antigen
Protocol: (§1) ELISA testing was carried out to evaluate the binding of chimeric antibodies to human and cynomolgus, respectively. The antibody portion of naptumomab (NeoTX) that targets 5T4 (abbreviated as naptumomab in the present disclosure), was generated and used as a benchmark.
(§2) Briefly, microtiter plates were coated with human and cynomolgus 5T4 proteins at […] in PBS, 100 μl/well at 4° C. overnight, then blocked with 150 μl/well of 1% BSA. Serial dilutions of chimeric antibodies were added to each well and incubated for 1 hour at RT. The plates were washed with PBS/Tween and then incubate with mouse-anti-human IgG Fc antibody conjugated with Horse Radish Peroxidase (HRP) for 30 mins at RT. After washing, the plates were developed with TMB substrate and analyzed by spectrophotometer at OD 450 nm. All the 5T4 chimeric mAbs bound to human and cynomolgus 5T4 (FIG. 1-2 and Table 3).

[3] = molecular target: T2, cynomolgus 5T4 protein (cynomolgus monkey, UniProt Q4R8Y9 35-355, limits assumed); assay: ELISA, coated antigen
T2 construct: Coated protein in ELISA; the screening step names a cyno 5T4-His protein; also called cyno 5T4; recombinant cyno 5T4-His protein
T2 sequence (looked up): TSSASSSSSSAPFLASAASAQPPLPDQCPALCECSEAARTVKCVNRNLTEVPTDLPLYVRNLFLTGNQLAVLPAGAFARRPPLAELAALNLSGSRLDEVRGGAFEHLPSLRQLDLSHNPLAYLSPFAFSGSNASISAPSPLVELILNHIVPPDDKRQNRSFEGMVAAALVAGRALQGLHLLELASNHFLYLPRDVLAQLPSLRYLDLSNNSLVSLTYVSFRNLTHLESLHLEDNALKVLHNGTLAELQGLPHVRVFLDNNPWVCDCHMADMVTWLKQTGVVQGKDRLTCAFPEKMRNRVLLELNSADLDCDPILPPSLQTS
Protocol: as §1, §2

[4] = molecular target: T1, human 5T4-His protein; assay: ELISA, coated 5T4-His
Protocol: To evaluate the binding activity of 159D5 humanized antibodies to human 5T4, the 159D5 chimeric antibody along with 159D5 humanized mAbs were subjected to ELISA test.
(§3) Briefly, microtiter plates were coated with human 5T4-His protein at 1 μg/ml in PBS, 100 μl/well at 4° C. overnight, then blocked with 150 μl/well of 10% BSA. Serial dilutions of antibodies were added to each well and incubated for 1 hour at 37° C. The plates were washed with PBS/Tween and then incubated with Goat Anti-Human IgG-HRP for 30 mins at 37° C. After washing, the plates were developed with TMB substrate and analyzed by spectrophotometer at OD 450 nm. As shown in FIG. 14 and Table 12, most of the humanized antibodies bound to human 5T4 with high activity.

[5] = molecular target: T1, human 5T4-His protein; assay: SPR Biacore, Protein A capture, 50 nM 5T4-His
Protocol: (§4) The binding of the 159D5 humanized antibodies to recombinant 5T4 protein (human 5T4-his tag) was tested with Biacore using a capture method. The mAbs were captured using Protein A chip. 50 nM of human 5T4-his tag protein was injected over captured antibody for 3 mins at a flow rate of 30 μl/min. The antigen was allowed to dissociate for 600 s. All the experiments were carried out on a Biacore T200. Data analysis was carried out using the Biacore T200 evaluation software.

[6] = molecular target: T1, human 5T4-His protein; assay: ELISA, coated 5T4-His; remark: listed apart in the source
Protocol: To evaluate the binding activity of 14G12 humanized antibodies to human 5T4, the 14G12 chimeric antibody along with 14G12 humanized mAbs were subjected to ELISA test.
as §3, with “with […]” for “with 150”, “[…]” for “of 10%”, “FIG. 10” for “FIG. 14”, “Table 6,” for “Table 12,”, “5T4 at” for “5T4 with”

[7] = molecular target: T1, human 5T4-His protein; assay: SPR Biacore, Protein A capture; remark: listed apart in the source
Protocol: as §4, with “14G12” for “159D5”, “Serial dilution” for “50 nM”, “120 s-180 s” for “3 mins”, “360 s-1000” for “600”

[8] = molecular target: T1, human 5T4-His protein; assay: SPR Biacore, Protein A capture; remark: listed apart in the source
Protocol: The binding affinity of tested antibodies against recombinant 5T4 protein (human 5T4-his tag) was tested with Biacore using a capture method. The antibodies were captured using Protein A chip. A serial dilution of human 5T4-his tag protein was injected over captured antibody for 3 mins at a flow rate of 30 μl/min. The antigen was allowed to dissociate for 300 s. All the experiments were carried out on a Biacore T200. Data analysis was carried out using Biacore T200 evaluation software.

[9] = molecular target: T1, human 5T4-His protein; assay: ELISA, coated human 5T4-His
Protocol: (§5) Briefly, microtiter plates were coated with human 5T4-His protein at 2 μg/ml in PBS, 30 μl/well at 4° C. overnight, then blocked with 5% PBS/Milk. Serial dilutions of antibodies were added to each well and incubated for 1 hour at room temperature. The plates were washed with PBS/Tween and then incubated with Goat Anti-Human IgG-HRP for 50 mins at room temperature. After washing, the plates were developed with TMB substrate and analyzed by spectrophotometer at OD 450 nm.

[10] = molecular target: T1, human 5T4-His protein; assay: ELISA, coated human 5T4-His; remark: listed apart in the source
Protocol: as §5

[11] = molecular target: T3, human 5T4 expressed on cells (human, UniProt Q13641 32-420); assay: flow cytometry, MCF-7 cells
T3 construct: whole, on cells; also called CHOK1-hu5T4; CHO-K1-expressing human 5T4
T3 sequence (looked up): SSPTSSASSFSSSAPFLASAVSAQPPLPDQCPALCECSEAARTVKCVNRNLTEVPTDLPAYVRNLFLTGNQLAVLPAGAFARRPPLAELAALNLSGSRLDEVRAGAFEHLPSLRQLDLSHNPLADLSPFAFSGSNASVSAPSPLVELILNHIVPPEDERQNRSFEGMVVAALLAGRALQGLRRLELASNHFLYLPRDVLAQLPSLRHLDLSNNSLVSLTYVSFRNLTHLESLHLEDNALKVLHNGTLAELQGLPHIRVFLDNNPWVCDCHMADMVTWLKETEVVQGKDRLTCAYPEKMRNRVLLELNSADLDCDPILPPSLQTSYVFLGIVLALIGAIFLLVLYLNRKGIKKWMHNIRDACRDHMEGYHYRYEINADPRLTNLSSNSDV
Protocol: (§6) To evaluate the binding property of affinity maturated antibodies to surface 5T4, tested antibodies were analyzed for their binding to CHOK1-hu5T4, HEK293-hu5T4 or MCF-7 cells by FACS. […] After wash by FACS buffer, PE conjugated-anti-human IgG antibody was added to each well and incubated at 4° C. for 30 minutes. MFI of PE was evaluated by MACSQuant Analyzer 16.

[12] = molecular target: T3, human 5T4 expressed on cells; assay: flow cytometry, CHOK1-hu5T4 cells
Protocol: as §6

[13] = molecular target: T3, human 5T4 expressed on cells; assay: flow cytometry, CHOK1-hu5T4 cells; remark: listed apart in the source
Protocol: as §6

[14] = molecular target: T3, human 5T4 expressed on cells; assay: flow cytometry, HEK293-hu5T4 cells
Protocol: as §6

[15] = molecular target: T3, human 5T4 expressed on cells; assay: flow cytometry, HEK293-hu5T4 cells; remark: listed apart in the source
Protocol: as §6

[16] = molecular target: T1, human 5T4-His protein; assay: SPR Biacore, Protein A capture; remark: listed apart in the source
[17] = molecular target: T3, human 5T4 expressed on cells; assay: flow cytometry, CHOK1-hu5T4 cells; remark: listed apart in the source

B1: 37G6 chimeric antibody (antibody, V domains shown)
VH: QVQLQQPGAELVKPGASVKMSCKASGYTFTSYWITWVKQRPGQGLERIGDIYPGSGTINYNEKFKSKATLTVDTSSSTAYMQLSSLTSEDSAVYCCARSDGNYYFDYWGQGTTLKVSS
VL: QIVLSQSPAILSASPGEKVTMTCRASSSVNYMHWYQQKPGSSPKPWIYATSNLASGVPVRFSGSGSGTSYSLTISRVEAEDAATYYCQQWSSNPPTFGGGTKLEIK
- Kd [1]: 0.59 nM
- koff [1]: 0.000486 s⁻¹
- kon [1]: 823000 M⁻¹ s⁻¹
- EC50 [2]: 0.13 nM
- EC50 [3]: 0.28 nM

B2: Hu159D5-10 (antibody, V domains shown)
VH: EVQLVESGGGVVQPGRSLRLSCAASGFTFSNFGMHWVRQAPGKGLEWVAYISSGSSTFYYADSVKGRFTISRDNSKNTLYLQMNSLRAEDTAVYFCARSPAYYRYGLDYWGQGTTVTVSS
VL: DIVMTQSPDSLAVSLGERATINCRASQSVSSSTFSYMHWYQQKPGQPPKLLIYSSSNLESGVPDRFSGSGSGTDFTLTISSLQAEDVAVYYCQHSWEIPYTFGGGTKVEIK
notes: humanized
- EC50 [4]: 0.094 nM
- Kd [5]: 9.31 nM
- koff [5]: 0.000488 s⁻¹
- kon [5]: 52400 M⁻¹ s⁻¹

B5: Hu14G12-28 (antibody, V domains shown)
VH: QVQLVQSGAEVKKPGASVKVSCKASGYAFSSSWMNWVRQAPGQGLEWMGRIYREDGHTNYNGKFKGRVTMTADKSITTAYMELSRLRSDDTAVYYCANGGAMDYWGQGTLVTVSS
VL: DIQMTQSPSSLSASVGDRVTITCRASQDISNYLNWYQQKPGKAPKLLIYYTSRLHSGVPSRFSGSGSGTDYTFTISSLQPEDIATYFCQQDNTLPWTFGGGTKVEIK
notes: humanized; also called parental Hu14G12-28 antibody
- EC50 [6]: 0.01 µg/mL
- Kd [7]: 2.42 nM
- koff [7]: 0.000714 s⁻¹
- kon [7]: 295000 M⁻¹ s⁻¹
- Kd [8]: 4.09 nM
- koff [8]: 0.000738 s⁻¹
- kon [8]: 180000 M⁻¹ s⁻¹
- EC50 (read off the curve) [9]: ~0.2 nM
- EC50 (read off the curve) [10]: ~0.1 nM
- EC50 (read off the curve) [11]: ~0.2 nM
- EC50 (read off the curve) [12]: ~2 nM
- EC50 (read off the curve) [13]: ~1 nM
- EC50 (read off the curve) [14]: ~2 nM
- EC50 (read off the curve) [15]: ~2 nM

B6: Hu14G12-28-88# (antibody, V domains shown)
VH: B5 VH
VL: B5 VL with Q89G, Q90N
- fold increase of binding affinity against the parental Hu14G12-28 [16]: 9.45 fold
- Kd [8]: 0.433 nM
- koff [8]: 8.28e-05 s⁻¹
- kon [8]: 191000 M⁻¹ s⁻¹
- EC50 (read off the curve) [9]: ~0.2 nM
- EC50 (read off the curve) [11]: ~0.3 nM
- EC50 (read off the curve) [12]: ~2 nM
- EC50 (read off the curve) [14]: ~2 nM

The remaining lines, values ahead:

- EC50 [4]: 0.12 nM
- Kd [5]: 1.06 nM
- koff [5]: 0.000273 s⁻¹
- kon [5]: 257000 M⁻¹ s⁻¹
B3: Hu159D5-11 (antibody, V domains shown)
VH: B2 VH
VL: B2 VL with Y53K
notes: humanized

- EC50 [4]: 0.12 nM
- Kd [5]: 1.21 nM
- koff [5]: 0.000267 s⁻¹
- kon [5]: 222000 M⁻¹ s⁻¹
B4: Hu159D5-12 (antibody, V domains shown)
VH: B2 VH
VL: B2 VL with M4L, Y53K
notes: humanized

- EC50 (read off the curve) [17]: 2 nM
B7: trispecific antibody with anti-5T4 portion of Hu393E9-45-P2 (protein, part only; not given: other two arms, Fc, linkers, format, not shown: another chain or arm of the molecule; a dimerising Fc or GST; small tags and cut ends)
VH: EVQLVESGGGLVQPGGSLRLSCAASGFTFTDYYMSWVRQAPGKGLEWVGFIRNKGNGYTTEYSASVKGRFTISRDNSKSSLYLQMNSLKTEDTAVYYCARYRGNPHYAMDYWGQGTLVTVSS
VL: EIVLTQSPGTLSLSPGERATLSCRASESVEFYGTSFLQWYQQKPGQAPRLLIYGASNVESGIPDRFSGSGSGTDFTLTISRLEPEDIAVYFCQQSRKVPSTFGGGTKVEIK

- EC50 (read off the curve) [17]: 2 nM
B8: trispecific antibody with anti-5T4 portion of Hu393E9-62-P2 (protein, part only; not given: other two arms, Fc, linkers, format, not shown: another chain or arm of the molecule; a dimerising Fc or GST; small tags and cut ends)
VH: B7 VH with S77A, K89R, T90A
VL: B7 VL with G9A, L13V, D64A, D74E, R81S, E83Q, P84S
